Where two headings read alike, the source gives them in different places. *1 amine or outer side, *2 acyl side, *3 side chain or, on linkers, in order; H or OH if unused. Where no end group is shown, it is not given here. Side-chain parts run from the residue outwards. [ ]: non-standard residue; d: D form. The star is where a group is joined. γGlu = O=C(O)[C@H](CCC(=O)[*:2])N[*:1]; Palmitoyl = CCCCCCCCCCCCCCCC(=O)*; Nle = CCCC[C@H](N)C(=O)O; Aib = CC(C)(N)C(=O)O
Legend:
Assay in all cases: cell-based or functional assay
human GLP-1 receptor [1] = target: T1, human GLP-1 receptor (human, UniProt P43220 24-463)
Target sequence in this assay (P43220 24-463): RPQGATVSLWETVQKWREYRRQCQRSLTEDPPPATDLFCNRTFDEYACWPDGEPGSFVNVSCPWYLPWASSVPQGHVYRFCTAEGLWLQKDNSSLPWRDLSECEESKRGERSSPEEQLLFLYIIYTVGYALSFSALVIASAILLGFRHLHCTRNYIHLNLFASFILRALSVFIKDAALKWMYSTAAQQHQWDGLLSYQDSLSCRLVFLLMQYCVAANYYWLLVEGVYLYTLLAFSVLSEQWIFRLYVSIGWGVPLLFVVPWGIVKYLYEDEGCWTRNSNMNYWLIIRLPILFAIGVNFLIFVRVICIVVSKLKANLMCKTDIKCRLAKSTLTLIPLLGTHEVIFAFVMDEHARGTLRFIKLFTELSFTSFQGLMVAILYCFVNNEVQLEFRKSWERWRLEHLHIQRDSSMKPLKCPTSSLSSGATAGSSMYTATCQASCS

human GIP receptor [2] = target: T2, human GIP receptor (human, UniProt P48546 22-466)
T2 sequence (looked up): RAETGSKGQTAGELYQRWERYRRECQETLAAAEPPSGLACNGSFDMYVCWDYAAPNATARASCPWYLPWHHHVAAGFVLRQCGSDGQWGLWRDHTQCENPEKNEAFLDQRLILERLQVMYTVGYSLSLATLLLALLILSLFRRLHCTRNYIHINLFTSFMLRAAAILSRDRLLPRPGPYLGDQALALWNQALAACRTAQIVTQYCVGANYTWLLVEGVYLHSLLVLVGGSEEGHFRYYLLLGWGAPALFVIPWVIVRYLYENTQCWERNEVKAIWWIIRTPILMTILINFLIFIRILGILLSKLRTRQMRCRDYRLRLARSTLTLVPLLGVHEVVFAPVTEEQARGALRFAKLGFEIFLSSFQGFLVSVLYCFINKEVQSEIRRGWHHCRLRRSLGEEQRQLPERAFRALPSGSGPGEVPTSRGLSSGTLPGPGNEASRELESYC

[3] = target: T3, human GIP receptor (human) (UniProt P48546)
T3 sequence (looked up): T2 sequence (looked up)

[4] = target: human GLP-1 receptor (human) (UniProt P43220)
human GLP-1 receptor [5] = target: T1, human GLP-1 receptor; remark: listed apart in the source
human GIP receptor [6] = target: T2, human GIP receptor; remark: listed apart in the source
human glucagon receptor = human glucagon receptor (human, UniProt P47871 26-477)
human GLP-1 receptor [7] = target: T1, human GLP-1 receptor; remark: listed apart in the source
human GIP receptor [8] = target: T2, human GIP receptor; remark: listed apart in the source

Chain of human glucagon receptor (P47871 26-477): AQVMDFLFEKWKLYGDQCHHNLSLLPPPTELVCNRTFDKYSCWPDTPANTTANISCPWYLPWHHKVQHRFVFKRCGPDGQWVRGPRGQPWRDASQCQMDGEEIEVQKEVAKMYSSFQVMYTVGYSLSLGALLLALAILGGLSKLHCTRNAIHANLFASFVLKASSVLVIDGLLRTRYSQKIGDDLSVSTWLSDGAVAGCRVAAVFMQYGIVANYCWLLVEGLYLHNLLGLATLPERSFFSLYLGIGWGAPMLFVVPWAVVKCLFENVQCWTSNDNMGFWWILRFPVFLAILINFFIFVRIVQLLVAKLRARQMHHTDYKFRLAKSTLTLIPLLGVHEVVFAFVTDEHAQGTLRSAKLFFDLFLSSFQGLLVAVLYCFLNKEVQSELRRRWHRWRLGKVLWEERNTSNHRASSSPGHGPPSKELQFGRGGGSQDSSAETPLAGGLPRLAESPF
Chain of human GLP-1 receptor (human) (P43220 24-463): as the sequence (P43220 24-463) above

Tyr(1)Ile(12)-GLP1 (peptide)
EC50 hGLP-1 R [pM] (human GLP-1 receptor [1]): 5 pM
EC50 hGIP R [pM] (human GIP receptor [2]): 3660 pM

Tyr(1)Ile(12)-exendin-4 (peptide)
EC50 hGIP R [pM] [3]: 93.9 pM
EC50 hGLP-1 R [pM] [4]: 1.3 pM

natural GIP (glucose-dependent insulinotropic polypeptide) (from UniProt P09681 52-93) (ligand)
EC50 [3]: 0.4 pM

B1: SEQ ID NO: 9 (peptide)
peptide: Y[Aib]EGTFTSDLSIQK([γGlu-Palmitoyl])EKRAA[Aib]EFIEWLKNTGPSSGAPPPS-NH2
modifications: N-terminus assumed
SMILES: CCCCCCCCCCCCCCCC(=O)N[C@@H](CCC(=O)NCCCC[C@H](NC(=O)[C@H](CCC(N)=O)NC(=O)[C@@H](NC(=O)[C@H](CO)NC(=O)[C@H](CC(C)C)NC(=O)[C@H](CC(=O)O)NC(=O)[C@H](CO)NC(=O)[C@@H](NC(=O)[C@H](Cc1ccccc1)NC(=O)[C@@H](NC(=O)CNC(=O)[C@H](CCC(=O)O)NC(=O)C(C)(C)NC(=O)[C@@H](N)Cc1ccc(O)cc1)[C@@H](C)O)[C@@H](C)O)[C@@H](C)CC)C(=O)N[C@@H](CCC(=O)O)C(=O)N[C@@H](CCCCN)C(=O)N[C@@H](CCCNC(=N)N)C(=O)N[C@@H](C)C(=O)N[C@@H](C)C(=O)NC(C)(C)C(=O)N[C@@H](CCC(=O)O)C(=O)N[C@@H](Cc1ccccc1)C(=O)N[C@H](C(=O)N[C@@H](CCC(=O)O)C(=O)N[C@@H](Cc1c[nH]c2ccccc12)C(=O)N[C@@H](CC(C)C)C(=O)N[C@@H](CCCCN)C(=O)N[C@@H](CC(N)=O)C(=O)N[C@H](C(=O)NCC(=O)N1CCC[C@H]1C(=O)N[C@@H](CO)C(=O)N[C@@H](CO)C(=O)NCC(=O)N[C@@H](C)C(=O)N1CCC[C@H]1C(=O)N1CCC[C@H]1C(=O)N1CCC[C@H]1C(=O)N[C@@H](CO)C(N)=O)[C@@H](C)O)[C@@H](C)CC)C(=O)O
EC50 hGLP-1 R [pM] (human GLP-1 receptor [5]): 3.6 pM
EC50 hGIP R [pM] (human GIP receptor [6]): 5.7 pM
EC50 hGLUC R [pM] (human glucagon receptor): 7710 pM
EC50 hGLP-1 R [pM] (human GLP-1 receptor [7]): 3.6 pM
EC50 hGIP R [pM] (human GIP receptor [8]): 5.7 pM

B2: SEQ ID NO: 32 (peptide)
peptide: Y[Aib]QGTFTSDLSIQK([γGlu-Palmitoyl])ESRAAQDFIEWLKAGGPSSGAPPPS-NH2
modifications: N-terminus assumed
SMILES: CCCCCCCCCCCCCCCC(=O)N[C@@H](CCC(=O)NCCCC[C@H](NC(=O)[C@H](CCC(N)=O)NC(=O)[C@@H](NC(=O)[C@H](CO)NC(=O)[C@H](CC(C)C)NC(=O)[C@H](CC(=O)O)NC(=O)[C@H](CO)NC(=O)[C@@H](NC(=O)[C@H](Cc1ccccc1)NC(=O)[C@@H](NC(=O)CNC(=O)[C@H](CCC(N)=O)NC(=O)C(C)(C)NC(=O)[C@@H](N)Cc1ccc(O)cc1)[C@@H](C)O)[C@@H](C)O)[C@@H](C)CC)C(=O)N[C@@H](CCC(=O)O)C(=O)N[C@@H](CO)C(=O)N[C@@H](CCCNC(=N)N)C(=O)N[C@@H](C)C(=O)N[C@@H](C)C(=O)N[C@@H](CCC(N)=O)C(=O)N[C@@H](CC(=O)O)C(=O)N[C@@H](Cc1ccccc1)C(=O)N[C@H](C(=O)N[C@@H](CCC(=O)O)C(=O)N[C@@H](Cc1c[nH]c2ccccc12)C(=O)N[C@@H](CC(C)C)C(=O)N[C@@H](CCCCN)C(=O)N[C@@H](C)C(=O)NCC(=O)NCC(=O)N1CCC[C@H]1C(=O)N[C@@H](CO)C(=O)N[C@@H](CO)C(=O)NCC(=O)N[C@@H](C)C(=O)N1CCC[C@H]1C(=O)N1CCC[C@H]1C(=O)N1CCC[C@H]1C(=O)N[C@@H](CO)C(N)=O)[C@@H](C)CC)C(=O)O
EC50 hGLP-1 R [pM] (human GLP-1 receptor [5]): 8.4 pM
EC50 hGIP R [pM] (human GIP receptor [6]): 7.1 pM
EC50 hGLUC R [pM] (human glucagon receptor): 82.6 pM
EC50 hGLP-1 R [pM] (human GLP-1 receptor [7]): 8.4 pM
EC50 hGIP R [pM] (human GIP receptor [8]): 7.1 pM

B3: SEQ ID NO: 41 (peptide)
peptide: Y[Aib]EGTFTSDLSIQ[Nle]EKRAA[Aib]EFIEWLKNTGPSSGAPPPS-NH2
modifications: N-terminus assumed
SMILES: CCCC[C@H](NC(=O)[C@H](CCC(N)=O)NC(=O)[C@@H](NC(=O)[C@H](CO)NC(=O)[C@H](CC(C)C)NC(=O)[C@H](CC(=O)O)NC(=O)[C@H](CO)NC(=O)[C@@H](NC(=O)[C@H](Cc1ccccc1)NC(=O)[C@@H](NC(=O)CNC(=O)[C@H](CCC(=O)O)NC(=O)C(C)(C)NC(=O)[C@@H](N)Cc1ccc(O)cc1)[C@@H](C)O)[C@@H](C)O)[C@@H](C)CC)C(=O)N[C@@H](CCC(=O)O)C(=O)N[C@@H](CCCCN)C(=O)N[C@@H](CCCNC(=N)N)C(=O)N[C@@H](C)C(=O)N[C@@H](C)C(=O)NC(C)(C)C(=O)N[C@@H](CCC(=O)O)C(=O)N[C@@H](Cc1ccccc1)C(=O)N[C@H](C(=O)N[C@@H](CCC(=O)O)C(=O)N[C@@H](Cc1c[nH]c2ccccc12)C(=O)N[C@@H](CC(C)C)C(=O)N[C@@H](CCCCN)C(=O)N[C@@H](CC(N)=O)C(=O)N[C@H](C(=O)NCC(=O)N1CCC[C@H]1C(=O)N[C@@H](CO)C(=O)N[C@@H](CO)C(=O)NCC(=O)N[C@@H](C)C(=O)N1CCC[C@H]1C(=O)N1CCC[C@H]1C(=O)N1CCC[C@H]1C(=O)N[C@@H](CO)C(N)=O)[C@@H](C)O)[C@@H](C)CC
EC50 hGLP-1 R [pM] (human GLP-1 receptor [7]): 11.2 pM
EC50 hGIP R [pM] (human GIP receptor [8]): 449 pM
